The labels stand for the following.
B1: LINE1-full (parent)
chain: UACGUAGGUGGUUUUCCCCUGAUAGUGCUAAGGGGGCCUGGAAGUUUGGACUGGGCAGAGCUCAACACAGCGUGGCAAAGUGGCUGUGGCUAGACUGCCUCUCUGGAUUCCUCGUCACUCAGCAGGGCAUCUCUGAGAGAAAUGCC

This data set covers variants of B1. Nature of the data set: self-cleavage, relative activity (ratio to wild type); higher = more cleavage; in vitro, sequencing; the parent is a self-cleaving ribozyme.
Regarding U134C A141G, the self-cleavage turned out to be 1.41.

For the variant G126A U143A, the self-cleavage is 1.49.

For the variant G126A U143C, the self-cleavage is 0.77.

In the case of G126A A136U, the self-cleavage came out at 1.41.

As to U130A A140U, the self-cleavage worked out at 1.24.

In the case of U130A A140G, the self-cleavage amounted to 1.27.

With C128U U143C, the self-cleavage was 1.26.

For the variant A129G U130A, the self-cleavage worked out at 1.19.

On to A129G U130C, for which the self-cleavage amounted to 1.69.

For A140G A142U, the self-cleavage amounted to 0.84.

For G126A A138U, the self-cleavage stood at 1.33.

With G127C U143C, the self-cleavage worked out at 1.61.

As to U132A A138G, the self-cleavage is 1.39.

As to A136C A140G, the self-cleavage is 1.53.

As for A129U A136U, the self-cleavage was 1.42.

Regarding A129U A136G, the self-cleavage was 1.

For the variant A129U G144A, the self-cleavage is 1.51.

In the case of U130C U134G, the self-cleavage worked out at 0.54.

As for U130C U134C, the self-cleavage is 1.51.

C131U U134A: the self-cleavage was 1.65.

For the variant U132C A140G, the self-cleavage was determined as 1.65.

With U132C A140U, the self-cleavage stood at 1.43.

On to A140U U143C, for which the self-cleavage turned out to be 1.54.

On to A140U U143A, for which the self-cleavage is 1.41.

U130G A140G: the self-cleavage was determined as 1.1.

Take G127A A140G: the self-cleavage worked out at 0.9.

Regarding G127A C146U, the self-cleavage turned out to be 1.43.

With A129G A140G, the self-cleavage came out at 1.47.

Turning to A136G C145U, the self-cleavage was determined as 1.45.

Regarding U132C G144U, the self-cleavage turned out to be 1.43.

As to A138G A140G, the self-cleavage came out at 1.52.

Consider A138G A140C, for which the self-cleavage amounted to 1.8.

Consider A138G A140U, for which the self-cleavage was determined as 1.29.

Regarding U130A C133U, the self-cleavage stood at 2.3.

As to A129C U143C, the self-cleavage amounted to 1.74.

In the case of G127A G139C, the self-cleavage was determined as 1.41.

Regarding U134G A136U, the self-cleavage was 1.72.

Consider C131A A142G, for which the self-cleavage turned out to be 0.98.

Consider G135A A138U, for which the self-cleavage worked out at 1.01.

U134A: the self-cleavage worked out at 0.98.

Take U134C: the self-cleavage came out at 1.18.

U134G: the self-cleavage came to 1.46.

Turning to U134A A136U, the self-cleavage is 1.27.

On to U134A A136G, for which the self-cleavage is 0.53.

Turning to A136U A142C, the self-cleavage was found to be 1.43.

Regarding A129G G139A, the self-cleavage is 1.43.

Regarding C131U A138U, the self-cleavage was 1.27.

With C131A A140G, the self-cleavage came to 1.94.

In the case of A136G G137A, the self-cleavage was 2.12.

Regarding G126U A129G, the self-cleavage is 1.61.

As for G126U A129U, the self-cleavage amounted to 0.81.

On to A136G G144A, for which the self-cleavage was found to be 0.88.

Regarding U143A, the self-cleavage stood at 1.12.

For U143G, the self-cleavage is 1.11.

Take U143C: the self-cleavage is 1.18.

In the case of A142G C146U, the self-cleavage was found to be 1.49.

On to U134C C146U, for which the self-cleavage was found to be 1.65.

On to U132C G139U, for which the self-cleavage worked out at 2.66.

As for A129G U134C, the self-cleavage was 1.43.

Take A129G U134A: the self-cleavage amounted to 0.89.

Consider G125U A136U, for which the self-cleavage was 1.8.

As to A129C A140G, the self-cleavage turned out to be 1.67.

Regarding A129C A140C, the self-cleavage is 1.29.

For the variant A129C A140U, the self-cleavage came out at 1.75.

On to C128U A138G, for which the self-cleavage stood at 1.44.

Turning to G126A C133A, the self-cleavage worked out at 1.7.

Turning to A129C A136G, the self-cleavage stood at 1.61.

In the case of G135U, the self-cleavage amounted to 1.22.

On to G135A, for which the self-cleavage came to 1.27.

Take G135C: the self-cleavage was 1.55.

A129G U143C: the self-cleavage amounted to 1.59.

Regarding A129G U143A, the self-cleavage was found to be 1.77.

Consider A140U A141G, for which the self-cleavage came out at 1.41.

Regarding A141G A142C, the self-cleavage came to 0.39.

Consider U134G A142G, for which the self-cleavage stood at 1.16.

Turning to A141C, the self-cleavage amounted to 1.04.

On to A141G, for which the self-cleavage came to 1.1.

Turning to A141U, the self-cleavage turned out to be 1.04.

A138G A142C: the self-cleavage was 0.16.

Consider A129C U130A, for which the self-cleavage was found to be 1.47.

Take G126U U143C: the self-cleavage was 1.33.

As for A138C U143A, the self-cleavage was 1.94.

As for A129G A141G, the self-cleavage is 1.6.

Consider A138U A142G, for which the self-cleavage turned out to be 0.93.

In the case of G126A, the self-cleavage came to 1.31.

Take G126C: the self-cleavage was determined as 1.19.

For the variant G126U, the self-cleavage came to 1.18.

For G139A A140G, the self-cleavage turned out to be 0.19.

In the case of A129U A138G, the self-cleavage came to 0.93.

Regarding A129U A138U, the self-cleavage turned out to be 1.47.

As for U130C G144A, the self-cleavage came out at 1.57.

Take C131G A138G: the self-cleavage was determined as 2.49.

As for A136G A138G, the self-cleavage is 1.6.

For the variant A136G A138U, the self-cleavage turned out to be 1.98.

For G126A A129U, the self-cleavage was 2.47.

Regarding U132A A141G, the self-cleavage worked out at 1.58.

U134A C145U: the self-cleavage stood at 0.83.

Turning to U134C C145U, the self-cleavage came out at 1.1.

Consider A138G U143G, for which the self-cleavage was determined as 1.34.

On to A138G U143C, for which the self-cleavage worked out at 1.54.

Regarding A136U C146U, the self-cleavage came out at 1.58.

As for U130C A142C, the self-cleavage is 1.76.

In the case of A141G G144A, the self-cleavage stood at 1.28.

With U132A A142G, the self-cleavage stood at 1.41.

On to U130C U143A, for which the self-cleavage was 1.51.

Take U130C U143C: the self-cleavage worked out at 1.53.

For G139U C145G, the self-cleavage came out at 2.02.

As to A140C U143C, the self-cleavage was 1.81.

Turning to U130C C145U, the self-cleavage was found to be 1.46.

As to G126C G137A, the self-cleavage came to 1.45.

For the variant G135U A140G, the self-cleavage turned out to be 1.08.

On to A136U A138G, for which the self-cleavage was determined as 1.55.

On to A141U U143C, for which the self-cleavage was 0.28.

Turning to U143C C146U, the self-cleavage was found to be 1.51.

U130C U132C: the self-cleavage came to 1.29.

Turning to U143C C145U, the self-cleavage came out at 1.06.

Consider C128U A141G, for which the self-cleavage amounted to 1.37.

Turning to C133U A138G, the self-cleavage turned out to be 1.32.

For the variant C133U A138U, the self-cleavage was 2.36.

Turning to G127A U134G, the self-cleavage was 1.1.

On to A136C C145A, for which the self-cleavage came out at 1.72.

In the case of G127A U143C, the self-cleavage worked out at 2.07.

For the variant A129G A138G, the self-cleavage was found to be 1.44.

For the variant A136U U143A, the self-cleavage amounted to 1.41.

On to U132C A141G, for which the self-cleavage turned out to be 1.46.

Regarding A141G C145U, the self-cleavage amounted to 1.

With U130C A136U, the self-cleavage was found to be 1.63.

On to U132A A136G, for which the self-cleavage was 1.79.

As to U130A A142C, the self-cleavage worked out at 0.79.

As for U134C G139A, the self-cleavage came out at 1.29.

On to G144C C145U, for which the self-cleavage is 0.99.

Take G139A A142G: the self-cleavage was 1.15.

In the case of G126A G127U, the self-cleavage turned out to be 1.44.

For the variant G127A A138G, the self-cleavage is 1.36.

As to A142G U143A, the self-cleavage is 1.28.

A142G U143C: the self-cleavage came out at 1.31.

For G125U U132C, the self-cleavage turned out to be 1.47.

Take A141G U143A: the self-cleavage was determined as 1.29.

Consider C131A, for which the self-cleavage is 1.48.

On to C131U, for which the self-cleavage came to 1.41.

Regarding C131G, the self-cleavage was 1.54.

A136U A140G: the self-cleavage turned out to be 1.7.

Turning to A136U A140U, the self-cleavage was determined as 1.65.

For A138U U143A, the self-cleavage was determined as 1.52.

Turning to C128A U134A, the self-cleavage came out at 0.3.

Turning to A138G G144C, the self-cleavage was 1.6.

As to A138G G144A, the self-cleavage was found to be 0.14.

Take G126A A141U: the self-cleavage turned out to be 0.67.

As to G126A A141G, the self-cleavage came out at 1.34.

Consider A142U U143A, for which the self-cleavage was 1.13.

With U132A A140U, the self-cleavage is 1.11.

Regarding U132G, the self-cleavage was 1.52.

In the case of U132A, the self-cleavage is 1.32.

U132C: the self-cleavage amounted to 1.35.

For the variant A129U A142G, the self-cleavage was found to be 1.43.

With U134A A142C, the self-cleavage is 1.23.

In the case of A136G A142G, the self-cleavage amounted to 1.47.

For the variant U130A A136G, the self-cleavage worked out at 1.46.

For U130A A136U, the self-cleavage stood at 1.18.

Take C128G: the self-cleavage came to 0.98.

Consider C128U, for which the self-cleavage was 1.39.

As for C128A, the self-cleavage turned out to be 0.7.

Turning to A140G G144U, the self-cleavage stood at 1.05.

Turning to A136G C146U, the self-cleavage came out at 1.91.

A129U G139A: the self-cleavage stood at 1.53.

For A129G G144U, the self-cleavage came to 1.67.

As to A129G G144A, the self-cleavage came out at 1.66.

The record behind these values is the RNAGym collection of RNA variant scans (doi:10.7554/elife.90254).
